This is an account of results in ChEMBL document CHEMBL1773060, “Two-step synthesis of novel, bioactive derivatives of the ubiquitous cofactor nicotinamide adenine dinucleotide (NAD)” (J Med Chem, 2011).

One may read the Km as the substrate concentration at which the rate is half of its maximum.

Substrate in this data set: NC(=O)c1ccc[n+]([C@@H]2O[C@H](COP(=O)([O-])OP(=O)(O)OC[C@H]3O[C@@H](n4cnc5c(N)ncnc54)[C@H](O)[C@@H]3O)[C@@H](O)[C@H]2O)c1
The data set is described as follows: Activity at human SIRT1 assessed as ADP-ribosyltransferase activity.

B1: NAD-dependent protein deacetylase sirtuin-1 (Homo sapiens), Q96EB6 (protein)
chain: MADEAALALQPGGSPSAAGADREAASSPAGEPLRKRPRRDGPGLERSPGEPGGAAPEREVPAAARGCPGAAAAALWREAEAEAAAAGGEQEAQATAAAGEGDNGPGLQGPSREPPLADNLYDEDDDDEGEEEEEAAAAAIGYRDNLLFGDEIITNGFHSCESDEEDRASHASSSDWTPRPRIGPYTFVQQHLMIGTDPRTILKDLLPETIPPPELDDMTLWQIVINILSEPPKRKKRKDINTIEDAVKLLQECKKIIVLTGAGVSVSCGIPDFRSRDGIYARLAVDFPDLPDPQAMFDIEYFRKDPRPFFKFAKEIYPGQFQPSLCHKFIALSDKEGKLLRNYTQNIDTLEQVAGIQRIIQCHGSFATASCLICKYKVDCEAVRGDIFNQVVPRCPRCPADEPLAIMKPEIVFFGENLPEQFHRAMKYDKDEVDLLIVIGSSLKVRPVALIPSSIPHEVPQILINREPLPHLHFDVELLGDCDVIINELCHRLGGEYAKLCCNPVKLSEITEKPPRTQKELAYLSELPPTPLHVSEDSSSPERTSPPDSSVIVTLLDQAAKSNDDLDVSESKGCMEEKPQEVQTSRNVESIAEQMENPDLKNVGSSTGEKNERTSVAGTVRKCWPNRVAKEQISRRLDGNQYLFLPPNRYIFHGAEVYSDSEDDVLSSSSCGSNSDSGTCQSPSLEEPMEDESEIEEFYNGLEDEPDVPERAGGAGFGTDGDDQEAINEAISVKQEVTDMNYPSNKS
Consider B1, for which the Km was found to be 80 µM.
